Literature values as cited in publication PMC7077193.

Molecular target: eIF4E (Lactuca sativa)

Q: For VPg (from UniProt P31999), which Kd is on record?
A: 300 nM
